The record followed here is publication PMC7521653, “Structural analysis of the LDL receptor–interacting FERM domain in the E3 ubiquitin ligase IDOL reveals an obscured substrate-binding site” (The Journal of Biological Chemistry, 2020).

This series deals with the molecule itself. In words: crystal structure; F3ab (183-283), space group P2(1)2(1)2(1), three copies in the asymmetric unit; crystals from 100 mM Hepes, pH 7.0, 10% (w/v) PEG 6000.

B1: IDOL F3ab subdomain (residues 183-283) (domain or fragment, human, UniProt Q8WY64 183-283, looked up)
chain: ENYGIEWHSVRDSEGQKLLIGVGPEGISICKDDFSPINRIAYPVVQMATQSGKNVYLTVTKESGNSIVLLFKMISTRAASGLYRAITETHAFYRCDTVTSA
notes: IDOL (MYLIP), human, F3ab subdomain, residues 183-283; E. coli codon-optimised gene in pET28(a); The construct holds an incomplete F3c' (279-283 of 279-300); also called FERM F3ab; third lobe of the FERM domain; not shown: His6, N-terminal, cleaved
As to B1, the binding result is “binds”.
